This data set relates to NMRI mice. Put plainly: LD50 test (toxicity of a preparation). The class given is in vivo, mouse (NMRI). The following applies: intravenous. As for the experimental part: The LD50 -test serves for determining the toxicity of a preparation. LD50 is the dose at which 50% of the animals die under experimental conditions. The preparation is intravenously injected in at least three dosages into ten NMRI ([…]) mice each, having a minimum body weight of 20 g. After an observation time of 7 days the living animals per dosage group are counted. The LD50 is calculated in accordance with Wilson and Worcester, Proc. Nat. Acad. Sci. U.S.A. 29, 114 (1943).

As to “Example 11: C1-esterase inhibitor, prepared with antithrombin III and heparin”, for the setting “7 days observation”, the “tolerance in LD50 test” value is “excellently tolerated”. The LD50 (7 days observation, 5,300 = maximum injectable amount C1-esterase-inhibitor) is recorded as > 5,300 units per kg body weight.

These data come from patent publication US4388232A, “Method of producing plasma fractions free of side-effects using fast-reacting antithrombin” (Immuno Aktiengesellschaft fur Chemisch Medizinische Produkte, priority 1979, dated 1983).
